The numbers were not newly measured in publication PMC9618554, which cites them from elsewhere.

The data set addresses insulin receptor site-2' (Homo sapiens) (UniProt P06213).

Sequence of insulin (P01308 90-110): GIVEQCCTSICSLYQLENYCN

Turning to insulin (from UniProt P01308), the Kd – broadly, a measure of binding affinity in units of concentration – was 0.4 µM.
